Laboratory results taken from patent US20250361274A1, “PEPTIDE AND PEPTIDE-CONTAINING AGENT” (PEPTIDREAM INC., priority 2022, published 2025).
Numbered stars: 1 amine (or outer) side, 2 acyl side, 3 side chain; on linkers, the order of the positions; unused ones are H or OH. Bridge positions count the residues as written; N and C are the ends. Square brackets hold non-standard residues; d marks the D form. Side chains are listed from the residue outwards. Ends that are not written are not given here. Peptide text beside a SMILES is read from it. * marks the point of attachment. KCOpipzaa = N6-(4-(carboxymethyl)piperazine-1-carbonyl)-L-lysine, O=C(NCCCC[C@H](N[*:1])C(=O)[*:2])N1CCN(CC(=O)[*:3])CC1; Bph3C = (S)-2-amino-3-(3'-chloro-[1,1'-biphenyl]-4-yl)propanoic acid, O=C([C@H](Cc1ccc(-c2cccc(Cl)c2)cc1)N[*:1])[*:2]; Cha4tH = (S)-2-amino-3-((1r,4S)-4-hydroxycyclohexyl)propanoic acid, O=C([C@H](C[C@H]1CC[C@H](O[*:3])CC1)N[*:1])[*:2]; X8 = 4‑(carboxymethyl)piperazine‑1‑carbonyl, O=C(O)CN1CCN(C(=O)*)CC1; 3Pal(6-Ph) = N[C@@H](Cc1ccc(-c2ccccc2)nc1)C(=O)O; Phe(4-COOH) = N[C@@H](Cc1ccc(C(=O)O)cc1)C(=O)O; NMePhe(3-Cl) = CN[C@@H](Cc1cccc(Cl)c1)C(=O)O; Piperazinyl(4-CH2COOH) = O=C(O)CN1CCN(*)CC1; Bip = N[C@@H](Cc1ccc(-c2ccccc2)cc1)C(=O)O; 3Pal(6-NH2) = Nc1ccc(C[C@H](N)C(=O)O)cn1; Phe(4-F) = N[C@@H](Cc1ccc(F)cc1)C(=O)O; Hyp = O=C(O)[C@@H]1C[C@@H](O)CN1; NMeF = CN[C@@H](Cc1ccccc1)C(=O)O; hCit = NC(=O)NCCCC[C@H](N)C(=O)O; 4Pal = N[C@@H](Cc1ccncc1)C(=O)O; Aad = N[C@@H](CCCC(=O)O)C(=O)O; Cha = N[C@@H](CC1CCCCC1)C(=O)O; CO = O=C([*:1])[*:2]; βAla = NCCC(=O)O

What was measured:
[1] = molecular target: T1, BMP7 (Homo sapiens, UniProt P18075); experiment: BMP7 signal transduction inhibitory activity: SMAD1 phosphorylation by BMP7 stimulus, A549 cells; format: cell-based; details: for aLISA BMP7: inhibition of SMAD1 phosphorylation by BMP7 stimulus, A549 cells
T1 sequence (P18075 293-431): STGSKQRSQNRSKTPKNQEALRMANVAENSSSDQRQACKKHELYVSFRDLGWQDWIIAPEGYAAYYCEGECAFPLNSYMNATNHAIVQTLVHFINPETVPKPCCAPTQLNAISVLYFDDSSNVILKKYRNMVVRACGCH
Procedure, shortened: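 SMAD1 phosphorylation readout in A549 cells stimulated with BMP7 (10 nM). Peptides were tested at three levels (e.g. 1/10/100, 10/100/1,000, 100/300/1,000, 10/30/90 nM) or at eight points, 1/3 steps, from 100 or 1,000 nM. Recombinant Noggin served as positive control at matching concentrations.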

[2] = molecular target: T2, BMP4 (Homo sapiens, UniProt P12644); experiment: BMP4 signal transduction inhibitory activity: SMAD1 phosphorylation by BMP4 stimulus, AlphaLISA SureFire, A549 cells; format: cell-based; details: for aLISA BMP4: inhibition of SMAD1 phosphorylation by BMP4 stimulus, A549 cells
T2 sequence (P12644 293-408): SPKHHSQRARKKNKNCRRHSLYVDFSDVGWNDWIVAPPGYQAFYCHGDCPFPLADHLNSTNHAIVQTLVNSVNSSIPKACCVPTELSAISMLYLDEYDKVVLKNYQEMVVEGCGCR

[3] = BMP7 10 nM stimulus, peptide conc. in assay 100, 300, 1000 nM, class symbols
[4] = BMP4 0.2 nM stimulus, peptide conc. in assay 0.02, 0.2, 2 nM, class symbols
[5] = AlphaLISA, class by peptide concentration zone
[6] = SMAD1 phosphorylation, BMP7 10 nM, peptide conc. in assay 1, 10, 100 nM
[7] = SMAD1 phosphorylation, BMP4 0.2 nM, peptide conc. in assay 0.2, 2, 20 nM
[8] = peptides of Synthesis 1, classes E, F, ND
[9] = peptides of Synthesis 1, classes D-F, ND

CC(C)[C@@H]1NC(=O)[C@H](Cc2ccc(C(=O)O)cc2)NC(=O)[C@H](C(C)C)NC(=O)[C@H](CCCNC(=N)N)NC(=O)[C@H](CCC(=O)O)NC(=O)CSC[C@@H](C(=O)NCC(N)=O)NC(=O)[C@H](CO)NC(=O)[C@H](Cc2ccc(C(=O)O)cc2)NC(=O)[C@H](Cc2ccc(C(=O)O)cc2)NC(=O)[C@H](Cc2ccc(O)cc2)NC(=O)[C@H](Cc2ccc(-c3ccccc3)cc2)NC(=O)[C@@H]2C[C@@H](O)CN2C(=O)[C@H](Cc2ccc(O)cc2)NC(=O)[C@H](CCCCNC(=O)N2CCN(CC(=O)O)CC2)NC(=O)[C@H](Cc2ccc(-c3ccccc3)nc2)NC(=O)[C@H](CCCNC(=N)N)NC(=O)[C@H](CCCCNC(=O)N2CCN(CC(=O)O)CC2)NC1=O [compound 277] ({CH2CO}-ERV[Phe(4-COOH)]VK([CO-Piperazinyl(4-CH2COOH)])R[3Pal(6-Ph)]K([CO-Piperazinyl(4-CH2COOH)])Y[Hyp][Bip]Y[Phe(4-COOH)][Phe(4-COOH)]SCG-NH2; thioether N-17)
aLIZA BMP7 (10 nM) % inh [1, 3]: H (showed less than 30% of inhibitory activity in 300 nM-addition zone and showed 30% or more of inhibitory activity in 1,000 nM-addition zone)
aLIZA BMP4 (0.2 nM) % inh [2, 4]: B (showed less than 30% of inhibitory activity in 0.02 nM-addition zone and showed 30% or more of inhibitory activity in 0.2 nM-addition zone)

45 (Ac-AK(X8)VYVK(X8)K[Bip]PYP[Bip]Y[Phe(4-COOH)][Phe(4-COOH)]SCG-NH2; thioether (positions not given here); not fully specified (bridges)) [compound 45]
aLISA BMP7 [1, 5]: ND (the inhibitory activity was less than 30% at the maximum concentration evaluated)
aLISA BMP4 [2, 5]: A (showed an inhibitory activity of 50% or more in a zone to which the peptide was added to in an amount of 0.2 nM)

68 ({CH2CO}-E[KCOpipzaa]VYVD[KCOpipzaa][Bip]PYP[Bip][4Pal][Phe(4-COOH)][Phe(4-COOH)]SCG-NH2; thioether N-17; not fully specified) [compound 68]
aLISA BMP7 [1, 5]: ND (the inhibitory activity was less than 30% at the maximum concentration evaluated)
aLISA BMP4 [2, 5]: D (showed inhibitory activity of less than 50% in 2 nM-addition zone)

71 ({CH2CO}-ERVYVDR[Bip]PYP[Bip][Phe(4-F)][Phe(4-COOH)][Phe(4-COOH)]SCG-NH2; thioether N-17; not fully specified) [compound 71]
aLISA BMP7 [1, 5]: C (showed less than 50% of inhibitory activity in 10 nM-addition zone and showed 50% or more of inhibitory activity in 100 nM-addition zone)
aLISA BMP4 [2, 5]: A (showed an inhibitory activity of 50% or more in a zone to which the peptide was added to in an amount of 0.2 nM)

346 (FG[NMeF]G[Bip]GDD[Cha]A[NMeF]IHCG-NH2; not fully specified (N-terminus, bridges)) [compound 346]
aLISA BMP7 (10 nM) % inh [1, 6]: D (showed less than 30% of inhibitory activity in 10 nM-addition zone and showed 30% or more of inhibitory activity in 100 nM-addition zone)
aLISA BMP4 (0.2 nM) % inh [2, 7]: ND (the inhibitory activity was less than 30% at the maximum concentration evaluated)

70 ({CH2CO}-ARVYVDK[Bip]PYP[Bip]Y[Phe(4-COOH)][Phe(4-COOH)]SCG-NH2; thioether N-17; not fully specified) [compound 70]
aLISA BMP7 [1, 5]: C (showed less than 50% of inhibitory activity in 10 nM-addition zone and showed 50% or more of inhibitory activity in 100 nM-addition zone)
aLISA BMP4 [2, 5]: A (showed an inhibitory activity of 50% or more in a zone to which the peptide was added to in an amount of 0.2 nM)

133 ({CH2CO}-ERVYVD[3Pal(6-NH2)][Bip]PYV[Bip]Y[Phe(4-COOH)][Phe(4-COOH)]SCG-NH2; thioether N-17; not fully specified) [compound 133]
aLISA BMP7 [1, 8]: E (showed 50% or more of inhibitory activity in a zone to which the peptide was added in an amount of 10 nM)
aLISA BMP4 [2, 9]: E (showed less than 50% of inhibitory activity in 0.2 nM-addition zone and showed 50% or more of inhibitory activity in 2 nM-addition zone)

363 (FG[NMeF]G[3Pal(6-Ph)]GDE[Cha]A[NMeF]LHCG-NH2; not fully specified (N-terminus, bridges)) [compound 363]
aLISA BMP7 (10 nM) % inh [1, 6]: D (showed less than 30% of inhibitory activity in 10 nM-addition zone and showed 30% or more of inhibitory activity in 100 nM-addition zone)
aLISA BMP4 (0.2 nM) % inh [2, 7]: ND (the inhibitory activity was less than 30% at the maximum concentration evaluated)

384 (FG[NMePhe(3-Cl)]G[Bip]GDD[Cha]A[NMeF]LHCG-NH2; not fully specified) [compound 384]
aLISA BMP7 (10 nM) % inh ([1]; BMP7 10 nM stimulus, peptide conc. in assay 10, 30, 90 nM): E (showed 30% or more of inhibitory activity in 10 nM-addition zone)
aLISA BMP4 (0.2 nM) % inh ([2]; BMP4 0.2 nM stimulus, peptide conc. in assay 2, 20, 200 nM): B (showed less than 30% of inhibitory activity in 20 nM-addition zone and showed 30% or more of inhibitory activity in 200 nM-addition zone)

145 ({CH2CO}-ERVYVDR[Bip]PY[hCit][Bip]Y[Phe(4-COOH)][Phe(4-COOH)]SCG-NH2; thioether N-17; not fully specified) [compound 145]
aLISA BMP7 [1, 8]: E (showed 50% or more of inhibitory activity in a zone to which the peptide was added in an amount of 10 nM)
aLISA BMP4 [2, 9]: D (showed 50% or more of inhibitory activity in 0.2 nM-addition zone)

411 (FG[NMeF]G[3Pal(6-Ph)]GDE[Cha][Aad][NMeF]L[Phe(4-COOH)]C[βAla][dE]) [compound 411]
aLISA BMP7 (10 nM) % inh ([1]; BMP7 10 nM stimulus, peptide conc. in assay 1, 10, 100 nM): D (showed less than 30% of inhibitory activity in 10 nM-addition zone and showed 30% or more of inhibitory activity in 100 nM-addition zone)
aLISA BMP4 (0.2 nM) % inh ([2]; BMP4 0.2 nM stimulus, peptide conc. in assay 0.2, 2, 20 nM): ND (the inhibitory activity was less than 30% at the maximum concentration evaluated)

319 (ERV[Phe(4-COOH)][Cha4tH][KCOpipzaa]R[3Pal(6-Ph)][KCOpipzaa]Y[Hyp][Bph3C]Y[Phe(4-COOH)][Phe(4-COOH)]SCG-NH2; not fully specified) [compound 319]
aLIZA BMP7 (10 nM) % inh ([1]; BMP7 10 nM, peptide 10, 100, 1000 nM, Table 6): D (showed less than 30% of inhibitory activity in a zone to which the peptide was added in an amount of 10 nM and showed 30% or more of inhibitory activity in 100 nM-addition zone)
aLIZA BMP4 (0.2 nM) % inh ([2]; BMP4 0.2 nM, peptide 0.02, 0.2, 2 nM, Table 6): B (showed less than 30% of inhibitory activity in 0.02 nM-addition zone and showed 30% or more of inhibitory activity in 0.2 nM-addition zone)

280 (ERV[Phe(4-COOH)]VDR[3Pal(6-Ph)][KCOpipzaa]Y[Hyp][Bip][4Pal][Phe(4-COOH)][Phe(4-COOH)]SC[βAla]) [compound 280]
aLIZA BMP7 (10 nM) % inh [1, 3]: H (showed less than 30% of inhibitory activity in 300 nM-addition zone and showed 30% or more of inhibitory activity in 1,000 nM-addition zone)
aLIZA BMP4 (0.2 nM) % inh [2, 4]: B (showed less than 30% of inhibitory activity in 0.02 nM-addition zone and showed 30% or more of inhibitory activity in 0.2 nM-addition zone)

352 (FG[NMeF]G[Bip]GDD[Cha]A[NMeF]LGCG-NH2; not fully specified (N-terminus, bridges); also: cyclic peptide, ring closure not given here) [compound 352]
aLISA BMP7 (10 nM) % inh [1, 6]: D (showed less than 30% of inhibitory activity in 10 nM-addition zone and showed 30% or more of inhibitory activity in 100 nM-addition zone)
aLISA BMP4 (0.2 nM) % inh [2, 7]: ND (the inhibitory activity was less than 30% at the maximum concentration evaluated)
